Assay results published in US20170152288A1 (published 2017).

Biological target: T1, rProtein A Sepharose FF (Staphylococcus aureus, UniProt P38507 37-327, immobilized on Sepharose FF chromatography resin (commercial, GE Healthcare))
T1 construct: all other ligands (L1-L78, A2P, MEP Hypercel) are small molecules; also called rProtA; rProtein A Sepharose 4 FF
Assay: batch adsorption in 96-well plates, Langmuir isotherm fit, Bradford assay of supernatant

B1: Bevacizumab (Avastin, F. Hoffmann-La Roche, Switzerland) (antibody, V domains shown)
VH: EVQLVESGGGLVQPGGSLRLSCAASGYTFTNYGMNWVRQAPGKGLEWVGWINTYTGEPTYAADFKRRFTFSLDTSKSTAYLQMNSLRAEDTAVYYCAKYPHYYGSSHWYFDVWGQGTLVTVSS
VL: DIQMTQSPSSLSASVGDRVTITCSASQDISNYLNWYQQKPGKAPKVLIYFTSSLHSGVPSRFSGSGSGTDFTLTISSLQPEDFATYYCQQYSTVPWTFGQGTKVEIK
Kd: 4.7 µg/mL
